Tests used:
[1] = target: T1, KRAS G12D peptide on HLA-A*11:01 (human); test: killing
T1 peptide: VVVGADGVGK

[2] = target: T2, KRAS G12D peptide on HLA-A*11:01 (human); test: killing
T2 peptide: VVGADGVGK

[3] = target: T3, KRAS wild type peptide on HLA-A*11:01 (human); test: activation reporter or marker
T3 peptide: VVVGAGGVGK

[4] = target: KRAS G12D neoantigen endogenously presented by HLA A*11:01 on KRAS-p.G12D tumor or transfected cell lines (human); test: cell-based or functional assay
[5] = target: T3, KRAS wild type peptide on HLA-A*11:01; test: killing
[6] = target: T4, KRAS wild type peptide on HLA-A*11:01 (human); test: killing
T4 peptide: VVGAGGVGK

[7] = target: T1, KRAS G12D peptide on HLA-A*11:01; test: cytokine release
[8] = target: T2, KRAS G12D peptide on HLA-A*11:01; test: cytokine release
[9] = target: T1, KRAS G12D peptide on HLA-A*11:01; test: activation reporter or marker

B1: EE184_KRAS_8a (TCR, V domains shown)
Valpha: AQTVTQSQPEMSVQEAETVTLSCTYDTSESDYYLFWYKQPPSRQMILVIRQEAYKQQNATENRFSVNFQKAAKSFSLKISDSQLGDAAMYFCAYKKYNDMRFGAGTRLTVKP
Vbeta: DGGITQSPKYLFRKEGQNVTLSCEQNLNHDAMYWYRQDPGQGLRLIYYSQIVNDFQKGDIAEGYSVSREKKESFPLTVTSAQKNPTAFYLCASSTGAGAFRTEAFFGQGTRLTVV
B1: recognises [1]; recognises [2]; no recognition [3].

B2: EE209_2 TCR (SEQ ID NOs: 12 and 13; beta chain using TRBC2-201) (TCR)
TCR alpha: ILNVEQSPQSLHVQEGDSTNFTCSFPSSNFYALHWYRWETAKSPEALFVMTLNGDEKKKGRISATLNTKEGYSYLYIKGSQPEDSATYLCAFLPGYSTLTFGKGTMLLVSPDIQNPDPAVYQLRDSKSSDKSVCLFTDFDSQTNVSQSKDSDVYITDKTVLDMRSMDFKSNSAVAWSNKSDFACANAFNNSIIPEDTFFPSPESSCDVKLVEKSFETDTNLNFQNLSVIGFRILLLKVAGFNLLMTLRLWSS
TCR beta: DAGITQSPRYKITETGRQVTLMCHQTWSHSYMFWYRQDLGHGLRLIYYSAAADITDKGEVPDGYVVSRSKTENFPLTLESATRSQTSVYFCASSVGRGGTEAFFGQGTRLTVVEDLKNVFPPKVAVFEPSEAEISHTQKATLVCLATGFYPDHVELSWWVNGKEVHSGVSTDPQPLKEQPALNDSRYCLSSRLRVSATFWQNPRNHFRCQVQFYGLSENDEWTQDRAKPVTQIVSAEAWGRADCGFTSESYQQGVLSATILYEILLGKATLYAVLVSALVLMAMVKRKDSRG
In the case of B2, the CD137 upregulation [4] is reported as 7 of 7 lines, the IFNg production [4] is reported as 5 of 7 lines and the granzyme B production [4] is reported as 6 of 7 lines. The killing activity (impedance assay) [4] was 5 of 7 lines.

B3: EE209_2 TCR (TCR, V domains shown)
Valpha: ILNVEQSPQSLHVQEGDSTNFTCSFPSSNFYALHWYRWETAKSPEALFVMTLNGDEKKKGRISATLNTKEGYSYLYIKGSQPEDSATYLCAFLPGYSTLTFGKGTMLLVSP
Vbeta: DAGITQSPRYKITETGRQVTLMCHQTWSHSYMFWYRQDLGHGLRLIYYSAAADITDKGEVPDGYVVSRSKTENFPLTLESATRSQTSVYFCASSVGRGGTEAFFGQGTRLTVV
B3: recognises [1]; recognises [2]; no recognition [5]. B3: no recognition [6].

B4: PD6_KRASmut_22 (TCR, V domains shown)
Valpha: AQTVTQSQPEMSVQEAETVTLSCTYDTSESDYYLFWYKQPPSRQMILVIRQEAYKQQNATENRFSVNFQKAAKSFSLKISDSQLGDAAMYFCAYYSGGGADGLTFGKGTHLIIQP
Vbeta: SAVISQKPSRDICQRGTSLTIQCQVDSQVTMMFWYRQQPGQSLTLIATANQGSEATYESGFVIDKFPISRPNLTFSTLTVSNMSPEDSSIYLCSVTWAGGWSYGYTFGSGTRLTVV
B4: recognises [7]; recognises [8].

B5: EE208_KRAS_1 (TCR, V domains shown)
Valpha: GNSVTQMEGPVTLSEEAFLTINCTYTATGYPSLFWYVQYPGEGLQLLLKATKADDKGSNKGFEATYRKETTSFHLEKGSVQVSDSAVYFCALSDGAGGFKTIFGAGTRLFVKA
Vbeta: EADIYQTPRYLVIGTGKKITLECSQTMGHDKMYWYQQDPGMELHLIHYSYGVNSTEKGDLSSESTVSRIRTEHFPLTLESARPSHTSQYLCASSESLYNEQFFGPGTRLTVL
B5: recognises [9]; no recognition [3].
